Assay [1] deals with T1, activated human MMP13 (human, UniProt P45452 104-471). Nature of the assay: cell-based or functional assay.
The next assay has as its target activated rat MMP13 (rat, UniProt P23097 99-466). Nature of the assay: cell-based or functional assay.
In another assay the target is activated dog MMP13 (dog, UniProt P45452 104-471 (human entry)). Description: cell-based or functional assay.
The target in another assay is bovine MMP13 (bovine, UniProt O77656 104-471). Description: cell-based or functional assay.
In another assay the target is cynomolgus MMP13 (cynomolgus, UniProt A0A2K5U988 104-471). Nature of the assay: cell-based or functional assay.
Assay [2] concerns the target T2, activated MMP13 (species not stated) (Homo sapiens (Human), UniProt P45452 104-471, Biotinylated in the TIMP-2 competition ELISA (sites not given). Activated form: pro-peptide removed.).
T2 construct: campaign 4 ELISA; Probably human
Description: TIMP-2 competition ELISA; Nanobody pre-incubated with 1.26 nM activated MMP13-biotin, binding to captured TIMP-2.

In assay [3] the target is T1, activated human MMP13. Nature of the assay: cell-based or functional assay. The source holds these as a separate data set.

B1: C0101PMP525C04 (VHH)
VHH: DVQLVESGGGLVQPGGSLRLSCAGSGSIFSGNAMGWYRQAPGKQRELVAAITSGGVTNYADSVKGRFTISRDNSKNTVYLQMNSLRPEDTAVYYCAADIRYPTGLVGDYWGQGTLVTVSS
notes: Profile 2 Nanobody
By IC50 is commonly meant the concentration at which inhibition is half-maximal. Read a high IC50 as lower potency. As for B1, in the assay with activated human MMP13 [1], the “IC50, human fluorogenic collagen assay” value worked out at 90.5 nM and the “IC50, human fluorogenic peptide assay” value came to 58 nM. Further, the “IC50, rat fluorogenic peptide assay” value with activated rat MMP13 amounted to 157 nM. Besides, the “IC50, dog fluorogenic peptide assay” value in the assay with activated dog MMP13 amounted to 90.8 nM. Besides, the “IC50, bovine fluorogenic peptide assay” value with bovine MMP13 was determined as 108 nM. The “IC50, cyno fluorogenic peptide assay” value with cynomolgus MMP13 came to 32.5 nM. In assay [2], this molecule returned a concentration for half-maximal inhibition (IC50) of 36.2 nM.

B2: C0101PMP520C04 (VHH)
VHH: DVQLVESGGGLVQPGGSLRLSCAASGRTFSSYAMGWFRQAPGKEREFVAAISWSGGSTYYSDSVKGRFTISRDNSKNTVYLQMNSLRPEDTAVYYCTAARGGVAGTDGPLGDYNYWGQGTLVTVSS
notes: Profile 2 Nanobody
With B2, in the assay with activated human MMP13 [1], the “IC50, human fluorogenic collagen assay” value was 31.5 nM and the “IC50, human fluorogenic peptide assay” value was 13.7 nM. For the same molecule, the “IC50, rat fluorogenic peptide assay” value in the assay with activated rat MMP13 stood at 5.6 nM. In the assay with activated dog MMP13, the “IC50, dog fluorogenic peptide assay” value was determined as 10.5 nM. In the assay with bovine MMP13, the “IC50, bovine fluorogenic peptide assay” value was found to be 27.9 nM. In the assay with cynomolgus MMP13, the “IC50, cyno fluorogenic peptide assay” value turned out to be 32.5 nM. Also, in assay [2], the 50% inhibitory concentration (IC50) was 8 nM.

B3: C010100691 (bispecific antibody)
chain: EVQLVESGGGLVQPGGSLRLSCAASGSIFSINAMGWYRQAPGKQRELVAAISSGGSTYYADSVKGRFTISRDNSKNTVYLQMNSLRPEDTAVYYCNAAVDASRGLPYELYYYWGQGTLVTVSSGGGGSGGGGSGGGGSGGGGSGGGGSGGGGSGGGGSEVQLVESGGGLVQPGGSLRLSCAASGRTFSSYTMGWFRQAPGKEREFVAAISWSGGRTYYADSVKGRFTISRDNSKNTVYLQMNSLRPEDTAVYYCAAYRRRRASSNRGLWDYWGQGTLVTVSS
On to B3, for which the “potency, human fluorogenic peptide assay” value with activated human MMP13 [3] was 0.484 nM.

B4: C0101PMP063F01 (VHH)
VHH: EVQLVESGGGLVQPGGSLRLSCSASTGIFRINTMGWHRQAPGKQRDLVATFTSDDNTKYADSVKGRFTISRDNAENTVYLQMNDLKPEDTAVYYCHATTVMYDSNSPDYWGQGTQVTVSS
notes: Profile 2 Nanobody
As to B4, in the assay with activated human MMP13 [1], the “IC50, human fluorogenic collagen assay” value worked out at 134 nM and the “IC50, human fluorogenic peptide assay” value came to 82.4 nM. For the same molecule, the “IC50, rat fluorogenic peptide assay” value with activated rat MMP13 stood at 20.2 nM. Moreover, the “IC50, dog fluorogenic peptide assay” value in the assay with activated dog MMP13 was determined as 73.9 nM. Moreover, in the assay with bovine MMP13, the “IC50, bovine fluorogenic peptide assay” value turned out to be 191 nM. Besides, the “IC50, cyno fluorogenic peptide assay” value with cynomolgus MMP13 is 108 nM. This molecule also yielded an IC50 in assay [2] of 177 nM.

B5: C010100080 (bispecific antibody)
chain: EVQLVESGGGLVQPGGSLRLSCAASGRTFSSYAMGWFRQAPGKEREFVAAISWSGGSTYYADSVKGRFTISRDNSKNTVYLQMNSLRPEDTAVYYCTAALAVYGPNRYRYGPVGEYNYWGQGTLVTVSSGGGGSGGGGSGGGGSGGGGSGGGGSGGGGSGGGGSEVQLVESGGGSVQAGGSLRLSCAASGSTFSRYSMNWYRQAPGKQREFVAGISVGRITNYAVSVRGRFTISRDNAEGTGYLQMNSLKPEDTAVYYCNAGGLQGYWGLGTLVTVSSGAADYKDHDGDYKDHDIDYKDDDDKGAAHHHHHH
As to B5, the “potency, human fluorogenic peptide assay” value with activated human MMP13 [3] came to 0.488 nM.

B6: C0101PMP080A01 (VHH)
VHH: EVQLVESGGGLVQPGGSLRLSCAASGFTLAYYSIGWFRQAPGKEREGVSCISSGIDGSTYYADSVKGRFTISRDNAKNTMYLQMNNLKPEDTGVYYCAADPSHYYSEYDCGYYGMDYWGKGTLVTVSS
On to B6, for which, in the assay with activated human MMP13 [1], the “IC50, human fluorogenic collagen assay” value was 10.8 nM and the “IC50, human fluorogenic peptide assay” value came out at 5.2 nM. Also, in the assay with activated rat MMP13, the “IC50, rat fluorogenic peptide assay” value came to 4.2 nM. Moreover, in the assay with activated dog MMP13, the “IC50, dog fluorogenic peptide assay” value was 6 nM. The “IC50, bovine fluorogenic peptide assay” value in the assay with bovine MMP13 was found to be 6.4 nM. For the same molecule, the “IC50, cyno fluorogenic peptide assay” value with cynomolgus MMP13 was 2.9 nM.

B7: C010100726 (bispecific antibody)
chain: EVQLVESGGGLVQPGGSLRLSCAASGRTFSSYAMGWFRQAPGKEREFVAAISWSGGSTYYADSVKGRFTISRDNSKNTVYLQMNSLRPEDTAVYYCTAALAVYGPSRYRYGPVGEYQYWGQGTLVTVSSGGGGSGGGGSGGGGSGGGGSGGGGSGGGGSGGGGSEVQLVESGGGLVQPGGSLRLSCAASGSTFSRYSMNWYRQAPGKQREFVAGISVGRITNYAVSVKGRFTISRDNSKNTVYLQMNSLRPEDTAVYYCNAGGLQGYWGQGTLVTVSS
As to B7, the “potency, human fluorogenic peptide assay” value with activated human MMP13 [3] came to 0.0671 nM.

B8: C010100727 (bispecific antibody)
chain: EVQLVESGGGLVQPGGSLRLSCAASGRTFSSYAMGWFRQAPGKEREFVAAISWSGGSTYYADSVKGRFTISRDNSKNTVYLQMNSLRPEDTAVYYCTAALAVYGPSRYRYGPVGEYQYWGQGTLVTVSSGGGGSGGGGSGGGGSGGGGSGGGGSGGGGSGGGGSEVQLVESGGGLVQPGGSLRLSCAASGSTFSRYSMNWYRQAPGKQREFVAGISVGRITNYAVSVKGRFTISRDNSKNTGYLQMNSLRPEDTAVYYCNAGGLQGYWGQGTLVTVSS
As for B8, in the assay with activated human MMP13 [3], the “potency, human fluorogenic peptide assay” value worked out at 0.134 nM.

B9: C010100688 (bispecific antibody)
chain: EVQLVESGGGLVQPGGSLRLSCAASGSIFSINAMGWYRQAPGKQRELVAAISSGGSTYYADSVKGRFTISRDNSKNTVYLQMNSLRPEDTAVYYCNAAVDASRGLPYELYYYWGQGTLVTVSSGGGGSGGGGSGGGGSGGGGSGGGGSGGGGSGGGGSEVQLVESGGGLVQPGGSLRLSCAASGSTFIINVVRWYRRAPGKQRELVATISSGGNANYVDSVRGRFTISRDNSKNTVYLQMNSLRPEDTAVYYCNVPTTHYGGVYYGPYWGQGTLVTVSS
With B9, in the assay with activated human MMP13 [3], the “potency, human fluorogenic peptide assay” value came out at 0.927 nM.

B10: C0101PMP513C04 (VHH)
VHH: DVQLVESGGGLVQPGGSLRLSCAASGRTFSRYVMGWFRQAPGKEREFVAAINWSSGSTYYADSVKGRFTISRDNSKNTVYLQMNSLRPEDTAVYYCAADRRVYYDTYPNLRGYDYWGQGTLVTVSS
For the molecule B10, in the assay with activated human MMP13 [1], the “IC50, human fluorogenic collagen assay” value is 18.1 nM and the “IC50, human fluorogenic peptide assay” value turned out to be 7.7 nM. In the assay with activated rat MMP13, the “IC50, rat fluorogenic peptide assay” value is 16.2 nM. Also, the “IC50, dog fluorogenic peptide assay” value with activated dog MMP13 worked out at 35.2 nM. Further, the “IC50, bovine fluorogenic peptide assay” value in the assay with bovine MMP13 turned out to be 48.7 nM. In addition, the “IC50, cyno fluorogenic peptide assay” value with cynomolgus MMP13 amounted to 8 nM.

B11: C010100170 (VHH)
VHH: EVQLVESGGGLVQPGGSLRLSCAASGSIFSINAMGWYRQAPGKQRELVAAISSGGSTYYADSVKGRFTISRDNSKNTVYLQMNSLRPEDTAVYYCNAAVDASRGLPYELYYYWGQGTLVTVSS
For the molecule B11, the “potency, human fluorogenic peptide assay” value with activated human MMP13 [3] came out at 0.608 nM.

B12: C0101PMP059F06 (VHH)
VHH: EVQLVESEGGTVEPGESLRLACAAPGPGIRTNFMAWYRQAPEKEREMVASISRDGSTHYADSVKGRFTISSDNATSTFYLQMNSLQVEDTAVYYCATDPHILHNDRAGAFLVEDYDHWGQGTQVTVSS
notes: Profile 2 Nanobody
Turning to B12, in the assay with activated human MMP13 [1], the “IC50, human fluorogenic collagen assay” value came out at 140 nM and the “IC50, human fluorogenic peptide assay” value stood at 56.3 nM. For the same molecule, the “IC50, rat fluorogenic peptide assay” value with activated rat MMP13 is 38.9 nM. Further, the “IC50, dog fluorogenic peptide assay” value in the assay with activated dog MMP13 was 82.6 nM. The “IC50, bovine fluorogenic peptide assay” value with bovine MMP13 is 108 nM. Further, the “IC50, cyno fluorogenic peptide assay” value in the assay with cynomolgus MMP13 worked out at 48.5 nM. Moreover, the IC50 in assay [2] worked out at 51.8 nM.

Source of the values: patent US12129308 (Merck KGaA, dated 2024).
